Results as given in patent US9504755B2, “Multi-arm polymeric alkanoate conjugates” (Nektar Therapeutics, priority 2008, dated 2016).

Assays:
[1] = Stability in human plasma; assay type: in vitro ADME; conditions: 37° C.
Description: (§1) The objective of the study was to assess the stability of 4-ARM-PEG20K-BA-docetaxel in mouse, rat, dog, and human plasma.
(§2) 4-ARM-PEG20K-BA-docetaxel was spiked ([…]; 60 μM) into heparinized, pooled male mouse, rat, and dog plasma; mixed sex pooled human plasma; and phosphate buffered saline. Triplicate samples were incubated at 37° C. for 0, 15, 30, 60, 120, and 240 min. Aliquots were removed at each timepoint and analyzed for disappearance of 4-ARM-PEG20K-BA-docetaxel and appearance of docetaxel using the validated dog plasma analytical method.

Stability in dog plasma = assay type: in vitro ADME; conditions: 37° C.
Description: as §1, §2

[2] = Stability in mouse plasma; assay type: in vitro ADME; conditions: 37° C.
Description: as §1, §2

[3] = Population pharmacokinetic modeling of terminal disposition rate constant, dogs; assay type: in vivo; conditions: dog
Source text: To further evaluate the sustained plasma docetaxel terminal half-life, a population pharmacokinetic approach was employed.
While determining the pharmacokinetics of docetaxel after administration of docetaxel or 4-ARM-PEG20K-BA-docetaxel, it was observed that reliable values for the terminal disposition rate constant λz could not be obtained for the majority of animals secondary to fluctuation of plasma docetaxel concentrations between adjacent sampling times and/or the occurrence of incomplete concentration-time profiles due to concentrations being near or at the lower limit of quantification (1 ng/mL). In addition, in Example 14, rats were sampled in groups of 15 using alternating, overlapping sparse sampling schemes across groups to encompass the total duration of sampling. All of these factors contributed to the occurrence of sparse data within a given animal's terminal concentration-time profile.
To further investigate and compare docetaxel terminal disposition patterns between docetaxel and 4-ARM-PEG20K-BA-docetaxel, population pharmacokinetic methods were applied to data from rats (Example 14) and dogs (Example 15 and in one additional study). This allowed estimation of population λz values and corresponding half-life values for each treatment group in the presence of incomplete data within individual animals. Specifically, data from all animals within a treatment group and all treatment groups were fit with a nonlinear mixed effect pharmacokinetic model using the program Monolix. Plasma docetaxel concentrations following docetaxel or 4-ARM-PEG20K-BA-docetaxel administration, and plasma 4-ARM-PEG20K-BA-docetaxel concentrations following 4-ARM-PEG20K-BA-docetaxel administration were fit with a model specifying zero-order input of the dose over a defined infusion period and biexponential disposition (Monolix PK Model 26). Docetaxel concentration-time data after 4-ARM-PEG20K-BA-docetaxel were fit with a model having first order input, to reflect metabolism of 4-ARM-PEG20K-BA-docetaxel to the active docetaxel metabolite, and biexponential disposition (Monolix PK Model 31). The parameter of interest for this investigation was the population terminal disposition rate constant, λz to supplement the results described above.
Dogs in the additional study received 7 mg/kg doses of 4-ARM-PEG20K-BA-docetaxel on Days 1 and 22 with serial blood sampling after each dose for determination of plasma 4-ARM-PEG20K-BA-docetaxel and docetaxel concentrations.

Stability in rat plasma = assay type: in vitro ADME; conditions: 37° C.
Description: as §1, §2

[4] = Stability in phosphate buffered saline; assay type: physicochemical; conditions: 37° C.
Description: as §1, §2

[5] = additional study, conjugate 7 mg/kg on Days 1 and 22
[6] = docetaxel 0.75 mg/kg or conjugate 0.72, 2, 4 mg/kg

Compound: 4-ARM-PEG20K-Butanoate-Linked Docetaxel Conjugate [4-ARM-PEG20K-BA-DOC]
- Conjugate remaining at 4 hr (%) ([1]; 60 μM): 88%
- Docetaxel released at 4 hr (%) ([1]; 60 μM): 4%
- Mass balance (%) ([1]; 4 hr): 92%
- Conjugate remaining at 4 hr (%) (Stability in dog plasma; 60 μM): 93%
- Docetaxel released at 4 hr (%) (Stability in dog plasma; 60 μM): 3%
- Mass balance (%) (Stability in dog plasma; 4 hr): 95%
- Conjugate remaining at 4 hr (%) ([2]; 60 μM): 72%
- Docetaxel released at 4 hr (%) ([2]; 60 μM): 20%
- Mass balance (%) ([2]; 4 hr): 92%
- plasma docetaxel half-life, fold longer than after docetaxel [3]: about 8 fold
- Mean (SE) λz, plasma conjugate [3, 5]: 0.0141 (0.00041) h^−1
- Mean (SE) λz, plasma docetaxel [3, 5]: 0.00627 (0.00086) hr^−1
- t½λz, plasma docetaxel [3, 5]: 110 h
- Mean (SE) λz, plasma docetaxel [3, 6]: 0.00349 (0.0021) hr^−1
- t½λz, plasma docetaxel [3, 6]: 199 h
- Conjugate remaining at 4 hr (%) (Stability in rat plasma; 60 μM): 64%
- Docetaxel released at 4 hr (%) (Stability in rat plasma; 60 μM): 20%
- Mass balance (%) (Stability in rat plasma; 4 hr): 84%
- Docetaxel released at 4 hr (%) ([4]; 60 μM): 0.6%
- Mass balance (%) ([4]; 4 hr): 86%

Compound: CC(=O)O[C@@]12CO[C@@H]1C[C@H](O)[C@@]1(C)C(=O)[C@H](O)C3=C(C)[C@@H](OC(=O)[C@H](O)[C@@H](NC(=O)OC(C)(C)C)c4ccccc4)C[C@@](O)([C@@H](OC(=O)c4ccccc4)[C@H]21)C3(C)C [Docetaxel, reference compound]
- t½λz, plasma docetaxel ([3]; in vivo): 25 h
